Source: PMC12344017 (Nature Communications, 2025)

Target: the molecule itself
Assay: cryo-EM structure

B1: MscS/YnaI chimera (other, E. coli | Escherichia coli, UniProt P0C0S1 1-31, looked up)
chain: MEDLNVVDSINGAGSWLVANQALLLSYAVNIIDFICTSLIAVILTIKLFLLINQFEKQQIKKGRDITSARIMSRIIKITIIVVLVLLYGEHFGMSLSGLLTFGGIGGLAVGMAGKDILSNFFSGIMLYFDRPFSIGDWIRSPDRNIEGTVAEIGWRITKITTFDNRPLYVPNSLFSSISVENPGRMTNRRITTTIGLRYEDAAKVGVIVEAVREMLKNHPAIDQRQTLLVYFNQFADSSLNIMVYCFTKTTVWAEWLAAQQDVYLKIIDIVQSHGADFAFPSQTLYMDNITPPEQGR
  binding result: binds
